# Measured values reported in patent US20150299281A1 (ZEALAND PHARMA A S, published 2015).
# Numbered stars: 1 amine (or outer) side, 2 acyl side, 3 side chain; on linkers, the order of the positions; unused ones are H or OH. Square brackets hold non-standard residues; d marks the D form. Side chains are listed from the residue outwards. * marks the point of attachment. γGlu = O=C(O)[C@H](CCC(=O)[*:2])N[*:1]; Palmitoyl = CCCCCCCCCCCCCCCC(=O)*; Aib = CC(C)(N)C(=O)O
# T1: human GIP receptor (human, UniProt P48546 22-466)
# T1 sequence (looked up): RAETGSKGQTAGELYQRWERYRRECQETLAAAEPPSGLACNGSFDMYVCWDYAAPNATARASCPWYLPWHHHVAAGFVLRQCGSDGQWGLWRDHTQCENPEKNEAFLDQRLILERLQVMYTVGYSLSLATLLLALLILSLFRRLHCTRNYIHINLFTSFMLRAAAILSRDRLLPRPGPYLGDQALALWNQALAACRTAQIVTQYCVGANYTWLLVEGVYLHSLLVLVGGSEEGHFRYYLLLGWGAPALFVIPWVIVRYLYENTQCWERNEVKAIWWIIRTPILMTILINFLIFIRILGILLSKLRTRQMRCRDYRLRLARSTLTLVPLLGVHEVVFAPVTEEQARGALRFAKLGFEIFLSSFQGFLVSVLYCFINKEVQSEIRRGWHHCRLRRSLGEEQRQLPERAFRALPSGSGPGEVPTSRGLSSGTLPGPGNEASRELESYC
# What was measured:
# human GIP receptor = target: T1, human GIP receptor; test: cell-based or functional assay
# human GLP-1 receptor = human GLP-1 receptor (human, UniProt P43220 24-463); test: cell-based or functional assay
"EC50, cAMP induction in HEK293 cells expressing human GIP R (human GIP receptor) [nM]","EC50, cAMP induction in HEK293 cells expressing human GLP-1 R (human GLP-1 receptor) [nM]",Binder
0.092,0.049,H-Y[Aib]EGTFTSDYSKYLDEK([γGlu-Palmitoyl])AAKDFIEWLESA-NH2 (SMILES CCCCCCCCCCCCCCCC(=O)N[C@@H](CCC(=O)NCCCC[C@H](NC(=O)[C@H](CCC(=O)O)NC(=O)[C@H](CC(=O)O)NC(=O)[C@H](CC(C)C)NC(=O)[C@H](Cc1ccc(O)cc1)NC(=O)[C@H](CCCCN)NC(=O)[C@H](CO)NC(=O)[C@H](Cc1ccc(O)cc1)NC(=O)[C@H](CC(=O)O)NC(=O)[C@H](CO)NC(=O)[C@@H](NC(=O)[C@H](Cc1ccccc1)NC(=O)[C@@H](NC(=O)CNC(=O)[C@H](CCC(=O)O)NC(=O)C(C)(C)NC(=O)[C@@H](N)Cc1ccc(O)cc1)[C@@H](C)O)[C@@H](C)O)C(=O)N[C@@H](C)C(=O)N[C@@H](C)C(=O)N[C@@H](CCCCN)C(=O)N[C@@H](CC(=O)O)C(=O)N[C@@H](Cc1ccccc1)C(=O)N[C@H](C(=O)N[C@@H](CCC(=O)O)C(=O)N[C@@H](Cc1c[nH]c2ccccc12)C(=O)N[C@@H](CC(C)C)C(=O)N[C@@H](CCC(=O)O)C(=O)N[C@@H](CO)C(=O)N[C@@H](C)C(N)=O)[C@@H](C)CC)C(=O)O) [Compound 49]
0.061,0.041,H-Y[Aib]EGTFTSDYSIYLDEK([γGlu-Palmitoyl])AAKDFVEWLESA-NH2 (SMILES CCCCCCCCCCCCCCCC(=O)N[C@@H](CCC(=O)NCCCC[C@H](NC(=O)[C@H](CCC(=O)O)NC(=O)[C@H](CC(=O)O)NC(=O)[C@H](CC(C)C)NC(=O)[C@H](Cc1ccc(O)cc1)NC(=O)[C@@H](NC(=O)[C@H](CO)NC(=O)[C@H](Cc1ccc(O)cc1)NC(=O)[C@H](CC(=O)O)NC(=O)[C@H](CO)NC(=O)[C@@H](NC(=O)[C@H](Cc1ccccc1)NC(=O)[C@@H](NC(=O)CNC(=O)[C@H](CCC(=O)O)NC(=O)C(C)(C)NC(=O)[C@@H](N)Cc1ccc(O)cc1)[C@@H](C)O)[C@@H](C)O)[C@@H](C)CC)C(=O)N[C@@H](C)C(=O)N[C@@H](C)C(=O)N[C@@H](CCCCN)C(=O)N[C@@H](CC(=O)O)C(=O)N[C@@H](Cc1ccccc1)C(=O)N[C@H](C(=O)N[C@@H](CCC(=O)O)C(=O)N[C@@H](Cc1c[nH]c2ccccc12)C(=O)N[C@@H](CC(C)C)C(=O)N[C@@H](CCC(=O)O)C(=O)N[C@@H](CO)C(=O)N[C@@H](C)C(N)=O)C(C)C)C(=O)O) [Compound 48]
0.096,0.14,H-Y[Aib]EGTFTSDYSIYLDSK([γGlu-Palmitoyl])AAHDFVEWLLRA-NH2 (SMILES CCCCCCCCCCCCCCCC(=O)N[C@@H](CCC(=O)NCCCC[C@H](NC(=O)[C@H](CO)NC(=O)[C@H](CC(=O)O)NC(=O)[C@H](CC(C)C)NC(=O)[C@H](Cc1ccc(O)cc1)NC(=O)[C@@H](NC(=O)[C@H](CO)NC(=O)[C@H](Cc1ccc(O)cc1)NC(=O)[C@H](CC(=O)O)NC(=O)[C@H](CO)NC(=O)[C@@H](NC(=O)[C@H](Cc1ccccc1)NC(=O)[C@@H](NC(=O)CNC(=O)[C@H](CCC(=O)O)NC(=O)C(C)(C)NC(=O)[C@@H](N)Cc1ccc(O)cc1)[C@@H](C)O)[C@@H](C)O)[C@@H](C)CC)C(=O)N[C@@H](C)C(=O)N[C@@H](C)C(=O)N[C@@H](Cc1c[nH]cn1)C(=O)N[C@@H](CC(=O)O)C(=O)N[C@@H](Cc1ccccc1)C(=O)N[C@H](C(=O)N[C@@H](CCC(=O)O)C(=O)N[C@@H](Cc1c[nH]c2ccccc12)C(=O)N[C@@H](CC(C)C)C(=O)N[C@@H](CC(C)C)C(=O)N[C@@H](CCCNC(=N)N)C(=O)N[C@@H](C)C(N)=O)C(C)C)C(=O)O) [Compound 47]
0.24,0.11,H-Y[Aib]EGTFTSDYSKYLDSK([γGlu-Palmitoyl])AAHDFVEWLLRA-NH2 (SMILES CCCCCCCCCCCCCCCC(=O)N[C@@H](CCC(=O)NCCCC[C@H](NC(=O)[C@H](CO)NC(=O)[C@H](CC(=O)O)NC(=O)[C@H](CC(C)C)NC(=O)[C@H](Cc1ccc(O)cc1)NC(=O)[C@H](CCCCN)NC(=O)[C@H](CO)NC(=O)[C@H](Cc1ccc(O)cc1)NC(=O)[C@H](CC(=O)O)NC(=O)[C@H](CO)NC(=O)[C@@H](NC(=O)[C@H](Cc1ccccc1)NC(=O)[C@@H](NC(=O)CNC(=O)[C@H](CCC(=O)O)NC(=O)C(C)(C)NC(=O)[C@@H](N)Cc1ccc(O)cc1)[C@@H](C)O)[C@@H](C)O)C(=O)N[C@@H](C)C(=O)N[C@@H](C)C(=O)N[C@@H](Cc1c[nH]cn1)C(=O)N[C@@H](CC(=O)O)C(=O)N[C@@H](Cc1ccccc1)C(=O)N[C@H](C(=O)N[C@@H](CCC(=O)O)C(=O)N[C@@H](Cc1c[nH]c2ccccc12)C(=O)N[C@@H](CC(C)C)C(=O)N[C@@H](CC(C)C)C(=O)N[C@@H](CCCNC(=N)N)C(=O)N[C@@H](C)C(N)=O)C(C)C)C(=O)O) [Compound 51]
0.053,0.09,H-Y[Aib]EGTFTSDYSIYLDEK([γGlu-Palmitoyl])AAKDFIEWLESA-NH2 (SMILES CCCCCCCCCCCCCCCC(=O)N[C@@H](CCC(=O)NCCCC[C@H](NC(=O)[C@H](CCC(=O)O)NC(=O)[C@H](CC(=O)O)NC(=O)[C@H](CC(C)C)NC(=O)[C@H](Cc1ccc(O)cc1)NC(=O)[C@@H](NC(=O)[C@H](CO)NC(=O)[C@H](Cc1ccc(O)cc1)NC(=O)[C@H](CC(=O)O)NC(=O)[C@H](CO)NC(=O)[C@@H](NC(=O)[C@H](Cc1ccccc1)NC(=O)[C@@H](NC(=O)CNC(=O)[C@H](CCC(=O)O)NC(=O)C(C)(C)NC(=O)[C@@H](N)Cc1ccc(O)cc1)[C@@H](C)O)[C@@H](C)O)[C@@H](C)CC)C(=O)N[C@@H](C)C(=O)N[C@@H](C)C(=O)N[C@@H](CCCCN)C(=O)N[C@@H](CC(=O)O)C(=O)N[C@@H](Cc1ccccc1)C(=O)N[C@H](C(=O)N[C@@H](CCC(=O)O)C(=O)N[C@@H](Cc1c[nH]c2ccccc12)C(=O)N[C@@H](CC(C)C)C(=O)N[C@@H](CCC(=O)O)C(=O)N[C@@H](CO)C(=O)N[C@@H](C)C(N)=O)[C@@H](C)CC)C(=O)O) [Compound 50]
